Reference: patent publication US20220204610A1, “PROTEIN BINDERS FOR IRHOM2” (NEW YORK SOCIETY FOR THE RELIEF OF THE RUPTURED AND …, priority 2019, published 2022)
Primed or numbered codes have the meaning given here. Where no end group is shown, it is not given here. Side-chain parts run from the residue outwards. [ ]: non-standard residue; d: D form. The star is where a group is joined. PEG(11) = undeca(ethylene glycol) spacer (11 ethylene glycol units) between biotin and maleimide; Biotin = O=C1N[C@H]2[C@H](CS[C@H]2CCCCC(=O)*)N1; PEG11′ = not defined here; Abu = CC[C@H](N)C(=O)O

T1: human iRhom2 (inactive rhomboid protein 2, isoform 1, NP_078875.4) (human, UniProt Q6PJF5 1-856)
T1 sequence: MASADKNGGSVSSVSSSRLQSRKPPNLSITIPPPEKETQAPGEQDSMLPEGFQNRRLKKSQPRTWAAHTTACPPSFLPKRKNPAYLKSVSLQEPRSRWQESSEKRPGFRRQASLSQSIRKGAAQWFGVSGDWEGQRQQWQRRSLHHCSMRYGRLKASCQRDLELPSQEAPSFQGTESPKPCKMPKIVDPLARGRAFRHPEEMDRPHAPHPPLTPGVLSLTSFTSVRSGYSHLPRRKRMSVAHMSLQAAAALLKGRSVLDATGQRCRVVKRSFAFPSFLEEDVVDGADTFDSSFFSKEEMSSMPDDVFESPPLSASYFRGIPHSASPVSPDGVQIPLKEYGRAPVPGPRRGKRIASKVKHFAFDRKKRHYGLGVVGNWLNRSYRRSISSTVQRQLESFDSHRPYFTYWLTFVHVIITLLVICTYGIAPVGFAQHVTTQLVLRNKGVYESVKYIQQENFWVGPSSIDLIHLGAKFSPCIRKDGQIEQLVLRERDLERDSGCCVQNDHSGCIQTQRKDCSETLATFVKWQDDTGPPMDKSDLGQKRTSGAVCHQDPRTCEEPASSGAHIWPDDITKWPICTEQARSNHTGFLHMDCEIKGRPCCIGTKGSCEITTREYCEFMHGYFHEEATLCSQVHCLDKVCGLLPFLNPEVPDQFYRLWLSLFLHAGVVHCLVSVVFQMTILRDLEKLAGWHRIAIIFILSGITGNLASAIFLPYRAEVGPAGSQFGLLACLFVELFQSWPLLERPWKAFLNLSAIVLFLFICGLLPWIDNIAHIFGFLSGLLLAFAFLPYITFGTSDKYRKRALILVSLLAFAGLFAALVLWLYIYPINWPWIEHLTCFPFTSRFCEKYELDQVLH

T2: peptide 8 (human iRhom2 C-terminus, AA824-839), biotinylated (human)
T2 construct: also called immunization peptide 8
T2 peptide: YIYPINWPWIEHLT[Abu]FC([maleimide-PEG11′-Biotin])

T3: peptide 3b (human iRhom1 juxtamembrane domain of TMD1, AA433-461), biotinylated (human, biotin-PEG(11)-maleimide on the added C-terminal cysteine)
T3 peptide: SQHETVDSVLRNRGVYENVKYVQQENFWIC

T4: peptide 7 (human iRhom2 loop 1, AA578-600), biotinylated (human, X (position 16) = aminobutyrate in place of the internal cysteine; biotin-PEG(11)-maleimide on the natural terminal cysteine)
T4 construct: also called immunization peptide 7
T4 peptide: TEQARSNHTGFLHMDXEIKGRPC

T5: peptide 11 (human iRhom2 C-terminus, AA819-856), biotinylated (human, oxidized to the cyclic disulfide; biotin-PEG(11)-maleimide on the added C-terminal cysteine)
T5 construct: also called immunization peptide 11
T5 peptide: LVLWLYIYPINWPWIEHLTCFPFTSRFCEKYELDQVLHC

T6: peptide 2b (human iRhom1 juxtamembrane domain of TMD1, AA428-449), biotinylated (human, biotin-PEG(11)-maleimide on the added C-terminal cysteine)
T6 peptide: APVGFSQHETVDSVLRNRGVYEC

T7: peptide 5 (human iRhom2 loop 1, AA474-498), biotinylated (human, X (position 4) = aminobutyrate in place of the internal cysteine; biotin-PEG(11)-maleimide on the added N-terminal cysteine)
T7 construct: also called immunization peptide 5
T7 peptide: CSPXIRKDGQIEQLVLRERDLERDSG

T8: peptide 6 (human iRhom2 loop 1, AA508-548), biotinylated (human, not fully specified; X (position 9) = aminobutyrate in place of the internal cysteine; biotin-PEG(11)-maleimide on the natural terminal cysteine)
T8 construct: also called immunization peptide 6
T8 peptide: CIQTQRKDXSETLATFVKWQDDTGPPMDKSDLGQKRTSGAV

T9: peptide 9 (human iRhom2 C-terminus, AA819-839), biotinylated (human, X (position 20) = aminobutyrate in place of the internal cysteine; biotin-PEG(11)-maleimide on the added C-terminal cysteine)
T9 construct: also called immunization peptide 9
T9 peptide: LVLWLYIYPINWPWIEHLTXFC

T10: peptide 10 (human iRhom2 C-terminus, AA824-856), biotinylated (human, oxidized to the cyclic disulfide; biotin-PEG(11)-maleimide on the added C-terminal cysteine)
T10 construct: also called immunization peptide 10
T10 peptide: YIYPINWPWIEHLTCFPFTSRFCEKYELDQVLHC

T11: peptide 4b (human iRhom1 juxtamembrane domain of TMD1, AA428-461), biotinylated (human, biotin-PEG(11)-maleimide on the added C-terminal cysteine)
T11 peptide: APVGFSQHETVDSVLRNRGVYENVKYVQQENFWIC

T12: peptide 1b (human iRhom1 juxtamembrane domain of TMD1, AA433-449), biotinylated (human)
T12 peptide: SQHETVDSVLRNRGVYEC([maleimide-PEG(11)-Biotin])


Experiments:
[1] = test system: LPS-induced release of endogenous TNFα from human THP-1 macrophage cells; assay: ELISA-based TNFα release assay with purified antibody (Example 11); assay type: cell-based; details: Homo sapiens; positive control at 10 μM final; THP-1 cells; LPS 50 ng/ml, 2 hours
Protocol: In the following study, ELISA-based TNFα release assays were performed to verify the inhibitory effects of the purified antibody 4H8-E3 of the invention on LPS-induced release of endogenous TNFα from human THP-1 macrophage cells.
In brief, on day 1, Nunc black MaxiSorp® 96-well plates (Thermo Fisher Scientific, USA) were coated overnight with 100 μl per well of mouse anti-human TNFα capture antibody (provided as part of the DuoSet ELISA kit) at 4 μg/ml TBS at 4° C. On day 2, the capture antibody solution was removed and MaxiSorp® plates were blocked with 300 μl per well of TBS, 1% BSA at room temperature for 3 hours. […] Using an infinite M1000 PRO (Tecan Group, Switzerland) microplate reader, the fluorescence of each well was collected at an excitation wavelength of 435 nm and an emission wavelength of 555 nm.

[2] = target: T1, human iRhom2 (inactive rhomboid protein …); assay: cell-based or functional assay
[3] = target: T2, peptide 8 (human iRhom2 C-terminus, …); assay: peptide binding ELISA, biotinylated peptide coated
[4] = target: T3, peptide 3b (human iRhom1 juxtamembrane …); assay: peptide binding ELISA, biotinylated peptide coated
[5] = target: T4, peptide 7 (human iRhom2 loop 1, …); assay: peptide binding ELISA, biotinylated peptide coated
[6] = target: T5, peptide 11 (human iRhom2 C-terminus, …); assay: peptide binding ELISA, biotinylated peptide coated
[7] = target: T6, peptide 2b (human iRhom1 juxtamembrane …); assay: peptide binding ELISA, biotinylated peptide coated
[8] = target: T7, peptide 5 (human iRhom2 loop 1, …); assay: peptide binding ELISA, biotinylated peptide coated
[9] = target: T8, peptide 6 (human iRhom2 loop 1, …); assay: peptide binding ELISA, biotinylated peptide coated
[10] = target: T9, peptide 9 (human iRhom2 C-terminus, …); assay: peptide binding ELISA, biotinylated peptide coated
[11] = target: T10, peptide 10 (human iRhom2 C-terminus, …); assay: peptide binding ELISA, biotinylated peptide coated
[12] = target: T11, peptide 4b (human iRhom1 juxtamembrane …); assay: peptide binding ELISA, biotinylated peptide coated
[13] = target: T12, peptide 1b (human iRhom1 juxtamembrane …); assay: peptide binding ELISA, biotinylated peptide coated

Molecule	inhibition at 10 µM [1] [%]	IC50 on LPS-induced release of endogenous TNFα from THP-1 cells [2] [nM]	binding result [3]	binding result [4]	binding result [5]	binding result [6]	binding result [7]	binding result [8]	binding result [9]	binding result [10]	binding result [11]	binding result [12]	binding result [13]
CNC(=O)[C@H](Cc1ccccc1)NC(=O)[C@H](CC(C)C)[C@H](CSc1cccs1)C(=O)NO [Batimastat, reference compound]	92.5	–	–	–	–	–	–	–	–	–	–	–	–
antibody 4H8-E3 of the invention (antibody, V domains shown, Mouse monoclonal antibody purified from the supernatant of hybridoma sub-clone 4H8-E3; also called anti JMD1 antibody 4H8-E3; purified antibody 4H8-E3) VH: EVQLQQSGPELVKPGASVKISCKASGYTFTDYYMNWVKQSHGKSLEWIGDINPNNGGTSYNQKFKGKATLTVDKSSNTAYMEFRSLTSEDSAVYYCARRGYYGVDYWGQGTTLTVSS VL: NIVMTQSPKSMSMSVGERVTLNCKASENVGTYVSWYQQKPEQSPKLLIFGASNRYTGVPDRFIGSGFATDFTLTISSVQAEDLADYHCGQSYSYPYTFGGGTKLEIK	–	6.48	no binding (tested: 3 µg/ml)	no binding (tested: 3 µg/ml)	no binding (tested: 3 µg/ml)	no binding (tested: 3 µg/ml)	no binding (tested: 3 µg/ml)	no binding (tested: 3 µg/ml)	no binding (tested: 3 µg/ml)	no binding (tested: 3 µg/ml)	no binding (tested: 3 µg/ml)	no binding (tested: 3 µg/ml)	no binding (tested: 3 µg/ml)
